Laboratory results reported in patent US20230332136A1, “IL-17 RECEPTOR MODULATOR SCREENING SYSTEM” (New York University, priority 2022, published 2023).

Assays:
IL-17RA/RC = molecular target: T1, IL-17RA/RC (Mus musculus, UniProt Q60943+Q8K4C2); experiment: mADIR-17 dmCherry reporter assay in MEF cells (flow cytometry); type: cell-based
T1 construct: Full length IL-17RC in the purified ADIR system; expressed in transfected cells; host or cells: mouse embryonic fibroblasts (MEF), retrovirally transduced
T1 sequence (Q60943 32-864): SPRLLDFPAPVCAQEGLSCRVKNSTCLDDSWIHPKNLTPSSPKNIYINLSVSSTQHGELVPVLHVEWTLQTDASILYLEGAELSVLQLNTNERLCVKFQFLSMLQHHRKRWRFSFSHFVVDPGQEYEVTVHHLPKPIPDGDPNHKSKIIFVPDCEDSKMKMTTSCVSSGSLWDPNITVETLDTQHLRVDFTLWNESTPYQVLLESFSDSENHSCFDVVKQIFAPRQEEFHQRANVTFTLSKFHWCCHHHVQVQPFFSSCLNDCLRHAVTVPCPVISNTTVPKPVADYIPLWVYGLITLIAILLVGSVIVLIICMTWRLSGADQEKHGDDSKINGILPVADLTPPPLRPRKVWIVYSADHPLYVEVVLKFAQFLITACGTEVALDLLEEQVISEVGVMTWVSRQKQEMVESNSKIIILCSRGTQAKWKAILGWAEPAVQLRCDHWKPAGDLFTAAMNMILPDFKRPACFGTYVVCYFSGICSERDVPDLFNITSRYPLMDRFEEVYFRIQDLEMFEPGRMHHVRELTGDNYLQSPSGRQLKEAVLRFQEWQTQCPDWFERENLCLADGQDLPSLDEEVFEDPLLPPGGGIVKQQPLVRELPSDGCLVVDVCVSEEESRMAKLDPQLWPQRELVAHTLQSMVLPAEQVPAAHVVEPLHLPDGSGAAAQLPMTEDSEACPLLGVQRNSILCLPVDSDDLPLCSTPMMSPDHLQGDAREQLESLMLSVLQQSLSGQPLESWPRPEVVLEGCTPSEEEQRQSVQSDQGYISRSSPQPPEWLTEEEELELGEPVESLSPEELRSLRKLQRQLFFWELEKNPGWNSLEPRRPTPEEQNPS
T1 sequence (Q8K4C2 22-698): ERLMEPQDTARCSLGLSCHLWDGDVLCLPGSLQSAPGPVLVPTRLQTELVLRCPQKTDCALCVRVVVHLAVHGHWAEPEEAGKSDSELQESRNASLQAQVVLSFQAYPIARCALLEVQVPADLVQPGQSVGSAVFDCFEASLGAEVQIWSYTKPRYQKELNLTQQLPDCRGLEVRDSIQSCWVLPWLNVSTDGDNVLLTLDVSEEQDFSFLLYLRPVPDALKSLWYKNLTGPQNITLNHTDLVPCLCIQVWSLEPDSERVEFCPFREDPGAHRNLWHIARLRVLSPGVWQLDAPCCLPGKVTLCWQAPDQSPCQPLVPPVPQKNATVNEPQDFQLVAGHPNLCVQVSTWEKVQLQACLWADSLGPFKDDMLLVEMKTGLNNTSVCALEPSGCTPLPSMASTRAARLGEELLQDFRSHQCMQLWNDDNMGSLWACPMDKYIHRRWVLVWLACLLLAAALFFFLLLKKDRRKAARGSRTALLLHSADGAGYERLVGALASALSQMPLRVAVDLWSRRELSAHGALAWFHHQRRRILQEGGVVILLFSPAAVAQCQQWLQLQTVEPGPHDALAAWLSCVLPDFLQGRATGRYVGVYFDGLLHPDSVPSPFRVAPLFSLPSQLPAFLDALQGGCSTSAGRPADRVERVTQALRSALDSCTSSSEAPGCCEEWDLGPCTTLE
Text: Unless defined otherwise herein, all technical and scientific terms used in this disclosure have the same meaning as commonly understood by one of ordinary skill in the art to which this disclosure pertains. Where the term “ADIR” is used herein it means ACT1-Dependent IL-17 Receptor Modulator Screening System. The preface “m” means mouse and the prefix “h” means human.
Mouse constructs were produced as depicted in the panels of FIG. 1. Human sequence constructs were produced as in the panels of FIG. 9, where mouse cDNA constructs were replaced by human cDNA constructed. In the mouse ADIR system exogenous IL-17RC was not provided because the cell line (mouse embryonic fibroblasts) have endogenous IL-17RC expression. In the hADIR system, human components used for the hADIR system (hRA, hRC, hRB, hAct1) were expressed from added polynucleotides.
The data reflected in the Figures utilized a reporter system specifically designed for Act1-dependent IL-17 signaling pathways. The reporter system is based at least in part on the principle that the engagement of active cognate ligands, and the interaction between Act1 and IL-17 receptors is required for active signaling of IL-17A/F, IL-17E, and IL-17C. The protein-protein-interaction (PPI) based reporter system is highly specific and easily scalable. The disclosure is illustrated using mouse and human systems. For the data presented in the Figures, the system comprised a three-part reporter system specifically designed for detecting IL-17A/F, IL-17E, and IL-17C signaling. The PPI-based reporter system provides for detecting active signaling, and is specific for each of the IL-17 family cytokines. The system that is responsive to binding of IL-17A and IL-17F comprises (1) an Act1-tobacco etch virus (TEV) protease fusion protein, which upon active IL-17A/F binding to the IL-17RA/RC receptor heterodimer on a target cell, will be recruited to (2) IL-17RC fused with a TEV cleavage site(TSC)-tTA (a transcriptional transactivator that binds to tetracycline responsive element, or TRE), releasing tTA, which will subsequently translocate into the nucleus where a (3) TRE-dmCherry-PEST (destabilized mCherry) element is integrated into the genome. tTA binds to the TRE to drive dmCherry expression in the target modified cell. The three described components, Act1-TEV, IL-17RC-TSC-tTA, and TRE-dmCherry-PEST, along with IL-17RA, can be delivered by retro or lenti-viral vectors or guide-RNA directed nucleases, or recombinase systems, or by homologous recombination, into mouse embryonic fibroblasts (MEF) or other mammalian cell lines, establishing stable reporter cell lines. Using the same principle, IL-17RC-TSC-tTA can be replaced with IL-17RB-TSC-tTA in the described system to provide for IL-17E (IL-25) binding, and with IL-17RE-TSC-tTA for detecting IL-17C binding. A parallel approach involves attaching the fusion protein of —TSC-tTA to the RA component and three independent system cell lines generated by supplementing RC/RB/RE, Act1-TEV, and TRE-dmCherry reporter components. Each of the retroviral vectors can contain a unique selection or fluorescent marker to enable efficient generation and maintenance of stable cell lines (for example, Puromycin resistance for m/hIL-17RC(RB, RE)-TSC-tTA; EBFP for m/hAct1-TEV; Neomycin resistance and mVenus fluorescence for TRE-dmCherry-PEST, and Thy1.1 for m/hRA).

IL-6 = experiment: IL-17A titration for activation of endogenous target gene IL-6 in MEF cells; type: cell-based, mouse; details: IL-17A titration (FIG. 3B)
Text: FIGS. 3A and 3B provide construct schematics (designed for mouse genes), and cartoon depictions of the proteins encoded by the constructs, and a graph illustrating IL-17A titrations for activation of an endogenous target gene (IL-6) in MEF cells. […] FIG. 3A: schematics of functional units of the retroviral transfer plasmid constructs used to build the mouse ADIR system.

- dmCherry signal produced (IL-17RA/RC; 0.4 ng/ml, after 24 hrs (FIG. 7)): 5.75%
- dmCherry signal produced (IL-17RA/RC; 2 ng/ml, after 24 hrs (FIG. 7)): 24.6%
- dmCherry signal produced (IL-17RA/RC; 10 ng/ml, after 24 hrs (FIG. 7)): 43.6%
- cells turning on dmCherry signal (IL-17RA/RC; 50 ng/ml, 24 hr after plating (FIG. 5B)): 27.2%
- dmCherry signal produced (IL-17RA/RC; 50 ng/ml, after 24 hrs (FIG. 7)): 55.1%
- dmCherry signal produced (IL-17RA/RC; 100 ng/ml, after 24 hrs (FIG. 6I)): 25%
- dmCherry signal produced (IL-17RA/RC; 100/2 ng/ml, after 24 hrs (FIG. 6H)): 24.5%
- dmCherry signal produced (IL-17RA/RC; 100/(2^2) ng/ml, after 24 hrs (FIG. 6G)): 21.9%
- dmCherry signal produced (IL-17RA/RC; 100/(2^3) ng/ml, after 24 hrs (FIG. 6F)): 19.9%
- dmCherry produced (IL-17RA/RC; 100/(2^4) ng/ml, after 24 hrs (FIG. 6E)): 17.6%
- dmCherry signal produced (IL-17RA/RC; 100/(2^5) ng/ml, after 24 hrs (FIG. 6D)): 12.6%
- dmCherry signal produced (IL-17RA/RC; 100/(2^6) ng/ml, after 24 hrs (FIG. 6C)): 8.69%
- dmCherry signal produced (IL-17RA/RC; 100/(2′7) ng/ml, after 24 hrs (FIG. 6B)): 5.36%
- EC50 (sensitivity, dose-dependent dmCherry response) (IL-17RA/RC; mIL-17A/F system, three parameter [Agonist] vs. response fit (FIG. 6J)): 3.556 ng/mL
B1: IL-17A: mouse IL-17 family cytokine, cognate ligand of IL-17RA/RC, used as agonist in the mADIR-17 system (protein, UniProt Q62386 26-158, looked up)
Interleukin-17A: AAIIPQSSACPNTEAKDFLQNVKVNLKVFNSLGAKVSSRRPSDYLNRSTSPWTLHRNEDPDRYPSVIWEAQCRHQRCVNAEGKLDHHMNSVLIQQEILVLKREPESCPFTFRVEKMLVGVGCTCVASIVRQAA
- activation of endogenous target gene (IL-6) (IL-6): upregulation of IL-6
